# Reference: paper PMC10244618
# “And” between values parts separate entries of the source, which are not always exact repeats. Equal entries are not always repeated.
# B1: NF2 (merlin) isoform 7, human, full length (507 aa, lacks exons 2-3 = isoform-1 residues 39-121; exon-16 C-terminus), P35240-4 (parent)
# chain: MAGAIASRMSFSSLKRKQPKTFTVRIVTMDAEMEFNCEVKKQILDEKIYCPPEASVLLASYAVQAKYGDYDPSVHKRGFLAQEELLPKRVINLYQMTPEMWEERITAWYAEHRGRARDEAEMEYLKIAQDLEMYGVNYFAIRNKKGTELLLGVDALGLHIYDPENRLTPKISFPWNEIRNISYSDKEFTIKPLDKKIDVFKFNSSKLRVNKLILQLCIGNHDLFMRRRKADSLEVQQMKAQAREEKARKQMERQRLAREKQMREEAERTRDELERRLLQMKEEATMANEALMRSEETADLLAEKAQITEEEAKLLAQKAAEAEQEMQRIKATAIRTEEEKRLMEQKVLEAEVLALKMAEESERRAKEADQLKQDLQEAREAERRAKQKLLEIATKPTYPPMNPIPAPLPPDIPSFNLIGDSLSFDFKDTDMKRLSMEIEKEKVEYMEKSKHLQEQLNELKTEIEALKLKERETALDILHNENSDRGGSSKHNTIKKPQAQGRRPICI
# Variants of: B1
# Assay: reverse yeast two-hybrid deep mutational scan (rY2H-seq): NF2 isoform 7 mutant library as bait mated with wild-type prey strains; selection on medium lacking adenine for non-interacting pairs; NextSeq paired-end sequencing; enrichment vs …
# Conditions: with EMILIN1 (elastin microfibril interfacer 1), Q9Y6C2; yeast diploids after mating (RBait_S3 x RPrey_S3), 30 °C, selection for reporter genes on NB agar; human tyrosine kinase ABL2 co-expressed as the active kinase …; HIGHER = WEAKER BINDING (the opposite of display enrichments): higher = stronger loss of interaction: reverse Y2H selects yeast in which bait and prey do NOT interact (growth without adenine), so a …; hits-only table; scale: rY2H score; numbering: uniprot, sequence starts at 1
row,enrichment,Variant
1,4.14,P174R
2,5.67,R270K
3,1.39,M326R
4,2.12,L389E
5,1.56,A128V
6,38.6,A290L
7,2.88,F426V
8,1.63,F426A
9,5.25,T429K
10,3.24,L300R
11,8.53,L300K
12,2.3,L300C
13,6.39,A107E
14,5.21 and 8.08,L390C
15,5.24,V209A
16,9.16,A266K
17,1.95 and 2.03,K340L
18,3.29,N416R
19,2.76,N416T
20,6.7,N416A
21,5.68 and 2.91,N143I
22,13.1 and 10.8,K304W

row,enrichment,Variant
1,2.07,R364K
2,1.92,D198N
3,2.52,R258V
4,6,K313T
5,2.72,G419L
6,2,E391L
7,1.53,P410K
8,3.71,L371E
9,2.9 and 1.56,L371A
10,5.52,K318A
11,1.71,P98L
12,1.92,E323G
13,2.75,E323L
14,1.45,E323A
15,1.65,S488R
16,2.35,Q279E
17,4.71,F79A
18,1.43,A381V
19,1.87,A381L
20,1.42,A381E
21,5.46,A381M
22,1.45,A381T

row,enrichment,Variant
1,1.52,K229L
2,1.73,N480A
3,4.33,T106L
4,1.61,L355E
5,1.78,L422A
6,1.63 and 1.9,I329K
7,1.61 and 3.25,L156W
8,2.52,R335E
9,2.88,R335C
10,2.61,R328T
11,2.72,D162P
12,2.65,M446V
13,2.56,L150A
14,4.1,D428K
15,6.72,H75E
16,1.98,Q317R
17,5.72,K469A
18,4.59 and 3.72,S294K
19,12.8,E264A
20,2.6,K330A
21,1.59,I404K
22,2.11,Q376K

row,enrichment,Variant
1,1.41,E252K
2,2.39 and 4,T285L
3,4.58,A247K
4,3.97 and 2.17,D299L
5,1.88,D299T
6,2.33,E309A
7,4.01,T269E
8,4.16,T336K
9,3.91 and 4.27,G146A
10,8.86,Q306E
11,1.85,E464L
12,1.8,K395Q
13,1.45,A240T
14,3.15,E282L
15,3.15,R363E
16,5.83,A350E
17,4.44,K170L
18,3.06,D425L
19,1.74,F415A
20,8.54,L417I
21,6.77,W175E
22,4.36,W175A

# Same assay, conditions: with NF2 C-terminal domain (wild type; homomeric NF2-NF2 interaction), P35240; yeast diploids after mating (RBait_S3 x RPrey_S3), 30 °C, selection for reporter genes on NB agar; human ABL2 co-expressed as the kinase-dead K35M mutant …; HIGHER = WEAKER BINDING (the opposite of display enrichments): higher = stronger loss of interaction: reverse Y2H selects yeast in which bait and prey do NOT interact (growth without adenine), so a …; hits-only table; partner unresolved; scale: rY2H score; numbering: uniprot, sequence starts at 1
row,enrichment,Variant
1,4.82,P174R
2,4.56 and 2.51,L389K
3,1.47,A128V
4,2.18,L300C
5,4.75,L390C
6,2.52,R364K
7,1.38,R258V
8,2.4,K313L
9,6.36 and 7.06,K313T
10,2.88,L371A
11,3.82,E323L
12,1.8,E323A
13,1.58,S488R
14,1.6,A381T
15,1.76,L355E
16,2.98 and 2.25,I329K
17,5.5 and 4.13,L156W
18,2.37,M122A
19,2.94,M357D
20,2.32,A365L
21,2.7,H75E
22,2.58,H75S
23,2.32 and 4.81,K469A
24,4.08,S294K
25,6.62,A247E
26,3.22,D299L
27,3.61,T269E
28,2.73,F415A
29,1.97,W175E
30,2.08,W175A

# Same assay, conditions: with PIK3R3 (phosphatidylinositol 3-kinase regulatory subunit gamma), Q92569; yeast diploids after mating (RBait_S3 x RPrey_S3), 30 °C, selection for reporter genes on NB agar; human tyrosine kinase ABL2 co-expressed as the active kinase …; HIGHER = WEAKER BINDING (the opposite of display enrichments): higher = stronger loss of interaction: reverse Y2H selects yeast in which bait and prey do NOT interact (growth without adenine), so a …; hits-only table; scale: rY2H score; numbering: uniprot, sequence starts at 1
row,enrichment,Variant
1,4.09,R270K
2,2.43,L389K
3,2.94,A290V
4,6.23,A107E
5,10.7,L390C
6,1.55,K340L
7,2.66,M238I
8,1.6,R258V
9,9.73 and 7.27,K313T
10,1.38,L371A
11,5.56,K318A
12,1.6,A381V
13,8.42,A381M
14,1.89,I329K
15,3.91 and 3.42,L156W
16,3.5 and 7.01,I171D
17,11.9 and 8.5,H75E
18,3.03,S361P
19,36.3,R227E
20,6.05,T285L
21,4.62,A358L
22,3.79,S414L
23,2.98,T336K
24,4.76,R363E
25,2.19,L417E

# Same assay, conditions: with KDM1A (lysine-specific histone demethylase 1A; the table's label AOF2 is a gene synonym of KDM1A), O60341; yeast diploids after mating (RBait_S3 x RPrey_S3), 30 °C, selection for reporter genes on NB agar; human ABL2 co-expressed as the kinase-dead K35M mutant …; HIGHER = WEAKER BINDING (the opposite of display enrichments): higher = stronger loss of interaction: reverse Y2H selects yeast in which bait and prey do NOT interact (growth without adenine), so a …; hits-only table; scale: rY2H score; numbering: uniprot, sequence starts at 1
row,enrichment,Variant
1,1.45,L389S
2,2.15,L389K
3,1.65,A290V
4,3.99,F426A
5,4.3,L300P
6,6.37,L390C
7,3.21,A312L
8,3.29,K340L
9,2.35,M238I
10,17,K304W
11,3.56,R364K
12,2.56,K313L
13,11.8 and 11.3,K313T
14,1.58,P410R
15,9.12 and 4.16,P410K
16,9.11,S423E
17,2.89,R384E
18,3.56,K318A
19,5.88,S12L

row,enrichment,Variant
1,1.84 and 3.01,E323A
2,1.65,S488R
3,4.82,Q279E
4,4.04,A59S
5,2.07,L422A
6,4.82 and 4.33,L156W
7,3.3,M122A
8,1.53,R328P
9,5.35,I171D
10,2.32,L353A
11,7.23,M357D
12,2.1,A365L
13,3.78,I392E
14,2.24,D428K
15,2.66,E311L
16,1.65,E187K
17,2.15,H75E
18,2.92,H75S
19,2,S361P

row,enrichment,Variant
1,5,S361A
2,1.85,K330A
3,14.7,R227E
4,7.37,A247E
5,3.02 and 4.36,D299L
6,7.18,A358L
7,1.69,P192S
8,1.9,E309L
9,1.73,S414E
10,3.17,S414L
11,2.98,T336L
12,2.42,D411C
13,1.54,E282K
14,1.89,R363G
15,2.37,H112A
16,4.11,L417I
17,2.45,L417E
18,1.76,G78K
19,2.59,W175C

# Same assay, conditions: with KDM1A (lysine-specific histone demethylase 1A; the table's label AOF2 is a gene synonym of KDM1A), O60341; yeast diploids after mating (RBait_S3 x RPrey_S3), 30 °C, selection for reporter genes on NB agar; human tyrosine kinase ABL2 co-expressed as the active kinase …; HIGHER = WEAKER BINDING (the opposite of display enrichments): higher = stronger loss of interaction: reverse Y2H selects yeast in which bait and prey do NOT interact (growth without adenine), so a …; hits-only table; scale: rY2H score; numbering: uniprot, sequence starts at 1
row,enrichment,Variant
1,1.87,L389E
2,11.2,T429K
3,2.16,A266K
4,3.09,K318A
5,1.55,E323L
6,2.5,I329K
7,5.87,L156W
8,1.78 and 2.82,R335C
9,5.65,E311L
10,3.22,H75S
11,2.29 and 3.4,S361A
12,3,K469A
13,4.79,K330A
14,4.23,D299L
15,6.77,A358L
16,1.51,E309L
17,2.26 and 6.75,T336K
18,3.12,L417E
19,5.27,G78K
